Data taken from patent US20190099470A1 (UNIVERSITY OF VERMONT AND STATE AGRICULTURAL COLLEGE, published 2019).

B1: His-tagged human MAVS-C79F expressed in MAVS-deficient MEFs (other, not shown: small tags and cut ends)
chain: MPFAEDKTYKYICRNFSNFCNVDVVEILPYLPCLTARDQDRLRATCTLSGNRDTLWHLFNTLQRRPGWVEYFIAALRGFELVDLADEVASVYQSYQPRTSDRPPDPLEPPSLPAERPGPPTPAAAHSIPYNSCREKEPSYPMPVQETQAPESPGENSEQALQTLSPRAIPRNPDGGPLESSSDLAALSPLTSSGHQEQDTELGSTHTAGATSSLTPSRGPVSPSVSFQPLARSTPRASRLPGPTGSVVSTGTSFSSSSPGLASAGAAEGKQGAESDQAEPIICSSGAEAPANSLPSKVPTTLMPVNTVALKVPANPASVSTVPSKLPTSSKPPGAVPSNALTNPAPSKLPINSTRAGMVPSKVPTSMVLTKVSASTVPTDGSSRNEETPAAPTPAGATGGSSAWLDSSSENRGLGSELSKPGVLASQVDSPFSGCFEDLAISASTSLGMGPCHGPEENEYKSEGTFGIHVAENPSIQLLEGNPGPPADPDGGPRPQADRKFQEREVPCHRPSPGALWLQVAVTGVLVVTLLVVLYRRRLH
notes: Expressed from vector pIRES in MAVS-KO MEFs; also called C79F variant; MAVS-C79F SNP
B2: Mouse MAVS, endogenous, on mitochondria of wild-type MEFs and BMDCs (other, UniProt Q8VCF0 1-503, looked up)
chain: MTFAEDKTYKYIRDNHSKFCCVDVLEILPYLSCLTASDQDRLRASYRQIGNRDTLWGLFNNLQRRPGWVEVFIRALQICELPGLADQVTRVYQSYLPPGTSLRSLEPLQLPDFPAAVSGPSAFAPGHNIPDHGLRETPSCPKPVQDTQPPESPVENSEQLLQTNSGAVARMSGGSLIPSPNQQALSPQPSREHQEQEPELGGAHAANVASVPIATYGPVSPTVSFQPLPRTALRTNLLSGVTVSALSADTSLSSSSTGSAFAKGAGDQAKAATCFSTTLTNSVTTSSVPSPRLVPVKTMSSKLPLSSKSTAAMTSTVLTNTAPSKLPSNSVYAGTVPSRVPASVAKAPANTIPPERNSKQAKETPEGPATKVTTGGNQTGPNSSIRSLHSGPEMSKPGVLVSQLDEPFSACSVDLAISPSSSLVSEPNHGPEENEYSSFRIQVDESPSADLLGSPEPLATQQPQEEEEHCASSMPWAKWLGATSALLAVFLAVMLYRSRRLAQ
notes: Endogenous full protein on the outer mitochondrial membrane of mouse cells; also called MAVS-WT (MEF); endogenous MAVS
B3: Homo sapiens mitochondrial antiviral signaling protein (MAVS), endogenous wild-type, as oligomers in human PBMC and in plasma of SLE patients (other)
chain: PFAEDKTYKYICRNFSNFCNVDVVEILPYLPCLTARDQDRLRATCTLSGNRDTLWHLFNTLQRRPGWVEYFIAALRGCELVDLADEVASVYQSYQPRTSDRPPDPLEPPSLPAERPGPPTPAAAHSIPYNSCREKEPSYPMPVQETQAPESPGENSEQALQTLSPRAIPRNPDGGPLESSSDLAALSPLTSSGHQEQDTELGSTHTAGATSSLTPSRGPVSPSVSFQPLARSTPRASRLPGPTGSVVSTGTSFSSSSPGLASAGAAEGKQGAESDQAEPIICSSGAEAPANSLPSKVPTTLMPVNTVALKVPANPASVSTVPSKLPTSSKPPGAVPSNALTNPAPSKLPINSTRAGMVPSKVPTSMVLTKVSASTVPTDGSSRNEETPAAPTPAGATGGSSAWLDSSSENRGLGSELSKPGVLASQVDSPFSGCFEDLAISASTSLGMGPCHGPEENEYKSEGTFGIHVAENPSIQLLEGNPGPPADPDGGPRPQADRKFQEREVPCHRPSPGALWLQVAVTGVLVVTLLVVLYRRRLH
notes: Endogenous protein from donors; In some experiments labelled with Alx488 or Alx546; also called MAVS-WT; SLE MAVS oligomers

Legend:
[1] = molecular target: the molecule itself; experiment: self-oligomerization in reconstituted MAVS-KO MEFs; semi-denaturing TGX gel and immunoblot
[2] = molecular target: B3; experiment: purified plasma oligomers incubated with purified mitochondria of MAVS-WT MEFs, mitochondria re-purified; immunoblot
[3] = molecular target: B1; experiment: plasma oligomers incubated with mitochondria of MAVS-KO MEFs expressing His-tagged human MAVS-C79F; anti-His immunoblot
[4] = molecular target: the molecule itself; experiment: self-oligomerization in human PBMC from healthy donors; semi-denaturing agarose gel and immunoblot
[5] = molecular target: T1, His-tagged human MAVS-WT expressed in MAVS-deficient MEFs (human, UniProt Q7Z434 1-540, limits assumed); experiment: plasma oligomers incubated with mitochondria of MAVS-KO MEFs expressing His-tagged human MAVS-WT; anti-His immunoblot
T1 construct: also called His-tagged human WT MAVS; not shown: N-terminal His-tag

B1
binding result [1]: binds

B2
binding result [2]: binds

B3
binding result [3]: binds
binding result [4]: binds
binding result [5]: binds
